From patent US20220218834A1, “APOHEMOGLOBIN-HAPTOGLOBIN COMPLEXES AND METHODS OF USING THEREOF” (OHIO STATE INNOVATION FOUNDATION, priority 2019, published 2022)

Tests used:
[1] = ApoHb stability during storage (DCNh activity assay, total protein, RP-HPLC); type: physicochemical; details: for effect of time on apoHb activity or total protein: stored at −80° C.
Method: The extinction coefficients of DCNh and rHbCN were 85 mM^−1 cm^−1 and 114 mM^−1 cm^−1, respectively.
Three TFF-apoHb batches were prepared. […] These groups consisted of unconcentrated, concentrated and lyophilized apoHb. […] The remainder of the batch was either sent to be lyophilized or to be concentrated to […]. […] The lyophilized powder was stored in a closed container at −80° C. […] These time intervals were chosen to capture relevant changes in activity at each storage condition. […] Thus, after initial measurements on a weekly basis, the insignificant changes lead to longer intervals between measurements. Statistical analysis was performed on JMP Pro v 12.2.2 (SAS Institute, Cary, N.C.) and measured concentrations were compared to the initial time point values of each batch. A linear fit with the logarithmic value of the concentration was used to examine the effect of time with the ANOVA test. For time point differences, time was considered as discrete and the TUKEY HSD test was performed.
Reverse Phase Chromatography. Reverse phase (RP) chromatography was performed with a BioBasic-18 column (Thermo Scientific, Waltham, Mass.) on a Thermo Scientific Dionex Ultimate UHPLC system. The flow rate of the mobile phase was set to 0.75 mL/min. The column was equilibrated with 35% acetonitrile and 65% TFA (0.5 wt %, pH 2.6) for 10 minutes. The gradient was then shifted to 43% acetonitrile over a 1 minute interval. The protein was eluted with an increasing linear gradient of 43 to 47% acetonitrile for 30 minutes. The column was then held at 47% acetonitrile for 20 minutes.

[2] = molecular target: T1, acellular human Hb (Homo sapiens, UniProt P68871+P69905); test: Vascular response to acellular Hb after pretreatment, hamster dorsal window chamber; type: in vivo, Golden Syrian Hamsters
T1 construct: Expired units of human red blood cells were generously donated; from tissue; host or cells: expired human red blood cell units; purified in house by tangential flow filtration
T1 sequence (P69905 2-142 limits assumed): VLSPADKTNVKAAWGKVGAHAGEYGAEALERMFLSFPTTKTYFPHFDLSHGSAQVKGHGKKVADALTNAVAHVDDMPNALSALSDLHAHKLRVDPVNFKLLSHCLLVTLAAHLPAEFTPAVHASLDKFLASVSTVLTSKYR
T1 sequence (P68871 2-147 limits assumed): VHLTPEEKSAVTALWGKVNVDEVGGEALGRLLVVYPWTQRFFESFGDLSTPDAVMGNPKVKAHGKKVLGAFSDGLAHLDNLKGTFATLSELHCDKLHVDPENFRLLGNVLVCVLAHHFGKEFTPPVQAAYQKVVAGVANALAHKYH
Method: Studies were performed in 55-65 g male Golden Syrian Hamsters (Charles River Laboratories, Boston, Mass.) fitted with a dorsal window chamber. The hamster window chamber model is widely used for microvascular studies without anesthesia. The complete surgical technique has been described previously. Two days after window implantation, arterial and venous catheters filled with heparinized saline solution (30 IU/mL) were implanted into the carotid and jugular vessels. Catheters were tunneled under the skin, exteriorized at the dorsal side of the neck, and securely attached to the window frame.
The unanesthetized animal was placed in a restraining tube with a longitudinal slit from which the window chamber protruded, then fixed to the microscopic stage for transillumination with the intravital microscope (BX51WI, Olympus, Japan). Animals were given 20 minutes to adjust to the tube environment and images were obtained using a CCD camera (4815, COHU, San Diego, Calif.). […]
The MAP and HR were monitored continuously (MP150, Biopac System Inc., Santa Barbara, Calif.). Hct was measured from centrifuged arterial blood samples taken in heparinized capillary tubes. Hb content was determined spectrophotometrically (B-Hemoglobin, Hemocue, Stockholm, Sweden). Arterial blood was collected in heparinized glass capillaries (50 μL) and immediately analyzed for pO2, pCO2, and pH (ABL90; Radiometer America, Brea, Calif.). Arterial Hb saturation was measured using an IL482 CO-Oximeter (Instrumentation Laboratory, Lexington, Mass.).
Arteriolar and venular blood flow velocities were measured using the photodiode cross-correlation method (Photo-Diode/Velocity, Vista Electronics, San Diego, Calif.). The measured centerline velocity (V) was corrected according to blood vessel size to obtain the mean RBC velocity. […] Blood flow (Q) was calculated from the measured values as Q=π/4D^2 V.
Functional capillaries, defined as capillary segments that have transit of at least one RBC in a 60 second period in 10 successive microscopic fields, were assessed in a region of 0.46 mm^2. […]

[3] = molecular target: T2, PolyHb (Homo sapiens, UniProt P68871+P69905); test: 20% isovolemic exchange transfusion of PolyHb after pretreatment, hamster window chamber; type: in vivo, Golden Syrian Hamsters
T2 construct: from tissue; host or cells: human red blood cells; Hb purified and polymerised in house
T2 sequence (P69905 2-142 limits assumed): as the sequence (P69905 2-142 limits assumed) above
T2 sequence (P68871 2-147 limits assumed): as the sequence (P68871 2-147 limits assumed) above
Method: Additionally, animals with signs of low perfusion, inflammation, edema, or bleeding in their microvasculature were excluded from the study. Prior to treatment, baseline systemic parameters and microvascular hemodynamics were assessed. […] 20 minutes following the initial treatment, the systemic parameters and microvascular hemodynamics were assessed. Afterward, the animals underwent a 20 percent isovolemic exchange transfusion with a 10 g/dL PolyHb solution. After another 20 minutes, the systemic parameters and microvascular hemodynamics were measured. Mean arterial pressure (MAP) and heart rate (HR) were monitored continuously (MP150, Biopac System Inc., Santa Barbara, Calif.). The sample size of 5 animals per group was calculated based on an expected 10% difference in mean arterial pressure between groups, an α=0.05, and […], and equal enrollment for all groups. Additionally, microhemodynamic measurements contain data from multiple vessels within the field (5-7 arterioles and venules selected at baseline based on visual clarity), improving the power of these measurements. Each experiment is a repeated measures study, so all experimental timepoints are replicated between all animals and groups. Furthermore, each experimental group contains animals from different litters, improving the replication of these studies. Animals were randomly assigned to their respective group before baseline measurements were taken. Each group contains animals from multiple litters of hamsters to improve randomization. Investigators were not blinded to group allocation during data collection or analysis. Blinding is not possible with these solutions as they have distinct colors. Measurements taken are highly quantitative, so blinding should have little impact.
The unanesthetized animal was placed in a restraining tube with a longitudinal slit from which the window chamber protruded, then fixed to the microscopic stage for transillumination with the intravital microscope (BX51WI, Olympus, New Hyde Park, N.Y.). […] Measurements were carried out using a 40× (LUMPFL-WIR, numerical aperture 0.8, Olympus) water immersion objective.
Arteriolar and venular blood flow velocities were measured using the photodiode cross-correlation method (Photo-Diode/Velocity, Vista Electronics, San Diego, Calif.). The measured centerline velocity (V) was corrected according to blood vessel size to obtain the mean RBC velocity. A video image-shearing method was used to measure blood vessel diameter (D). Blood flow (Q) was calculated from the measured values as
Functional capillaries, defined as capillary segments that have RBC transit of at least one RBC in a 60 second period in 10 successive microscopic fields, were assessed in a region of 0.46 mm^2. FCD (mm^−1) is calculated as the total length of RBC perfused capillaries divided by the area (0.46 mm^2).

[4] = Specificity of Al-PC binding to proteins (UV-visible absorbance at 680 nm); details: absorbance at 680 nm after Al-PC addition in PBS
Method: The stock Al-PC solution was diluted 100× into 100% EtOH.
The concentrations of Hp, HSA, Hb and rHb in solution were 1.0 mg/mL, 0.35 mg/ml (and 3.5 mg/ml), 0.35 mg/mL, and 0.33 mg/mL respectively.

[5] = tested on: β-thalassemic mice; details: cited from earlier work

## apoHb: protein produced by removing heme from Hb; made via acidic ethanol tangential flow filtration
[1]; 4° C., −80° C., and lyophilized form
  loss of apoHb activity during long term storage: Virtually no loss of apoHb activity
[1]; 37° C., liquid
  total protein and activity in solution during storage: quickly lost total protein and activity in solution
[1]; apoHb stored at 4° C. for one month, vs reconstituted right after production
  P50 and cooperativity coefficient after reconstitution into rHb: did not show any significant difference
[1]; lyophilized
  effect of time on apoHb activity or total protein: did not show a significant effect of time on apoHb activity or total protein
[1]; one-week storage at 22° C.
  retention of total protein: 80-90%
[1]; stored at 4° C. or at 22° C.
  oxidative modifications (RP-HPLC): show an additional β-chain peak (βox)
[1]; stored at 4° C., unconcentrated
  effect of time on activity: no significant differences were seen after day 10
[1]; stored at −80° C. or lyophilized for over a year
  oxidative modifications (RP-HPLC): no oxidative modifications were observed
[1]; both concentrations
  effect of time on apoHb activity or total protein: no statistically significant effect of time on apoHb activity or total protein
[2]; after acellular Hb 10% hypervolemic infusion
  MAP: elevated MAP compared to baseline and pretreatment
[2]; after acellular Hb infusion
  FCD: FCD decreased
  HR: statistically significant decrease in HR from baseline and pre-treatment
[3]; after PolyHb exchange transfusion
  MAP: significant increase in MAP
[3]; after PolyHb transfusion
  FCD: FCD significantly decreased
  arteriole and venule diameter: significant decrease in relative arteriole and venule diameter compared to the baseline
  arteriole and venule fluid velocities and volumetric flow rates: the volumetric flow rate in the arterioles and venules decreased
[3]; after administration, prior to transfusion of PolyHb
  MAP or HR: no significant effect on MAP or HR
[3]; after treatment, before PolyHb transfusion
  FCD: significant increase in FCD
[4]
  Al-PC binding: Al-PC bound to apoHb and prevented Al-PC aggregation

B1: Hpx: hemopexin, plasma heme scavenging protein (protein, UniProt P02790 24-462, looked up)
Hemopexin: TPLPPTSAHGNVAEGETKPDPDVTERCSDGWSFDATTLDDNGTMLFFKGEFVWKSHKWDRELISERWKNFPSPVDAAFRQGHNSVFLIKGDKVWVYPPEKKEKGYPKLLQDEFPGIPSPLDAAVECHRGECQAEGVLFFQGDREWFWDLATGTMKERSWPAVGNCSSALRWLGRYYCFQGNQFLRFDPVRGEVPPRYPRDVRDYFMPCPGRGHGHRNGTGHGNSTHHGPEYMRCSPHLVLSALTSDNHGATYAFSGTHYWRLDTSRDGWHSWPIAHQWPQGPSAVDAAFSWEEKLYLVQGTQVYVFLTKGGYTLVSGYPKRLEKEVGTPHGIILDSVDAAFICPGSSRLHIMAGRRLWWLDLKSGAQATWTELPWPHEKVDGALCMEKSLGPNSCSANGPGLYLIHGPNLYCYSDVEKLNAAKALPQPQNVTSLLGCTH
[5]; Hpx treatment alone
  RBC levels: did not improve RBC levels
[5]; one month of Hpx treatment alone
  iron levels in the liver: increased iron levels in the liver
